Assay: yeast display, Sf9 membrane polyspecificity reagent, FACS + sequencing; frameworks hold sequencing errors
Procedure, shortened: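 Nanobodies from a synthetic yeast display library (Saccharomyces cerevisiae BJ5465), induced 36–48 hours with galactose, were stained 1 hour at 4 °C with 10% biotinylated, detergent-solubilized Sf9 membrane reagent, enriched on streptavidin microbeads, then FACS-sorted. Anti-HA (expression) and streptavidin (reagent binding) fluorescence set low and high (top ~1%) gates. Polyreactivity labels come from the gate of origin. Genes were colony-PCR amplified, MiSeq 2 × 250 sequenced and filtered by CDR length.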

Sequence | polyreactivity (PSR sort gate)
QDQLVESVGGLDQAGGSLRLSSAASGRTFWWNAMGWYRQAPGKERELVAVISYSGGSTYYADSVKGRFTISRDNAKNTVYLQMNSLKPEDTAVYYCAAATRVRGFTEYYWGQGTQVTVSS | high polyreactivity
QVQLVESGGGLVQAGGSLRLSCAASGRISNDYAMGWYRQAPGKERELVATITFSGGDTYYADSVKGRFTISRDNAKNTVYLQMNSLKPEDTAVYYCAASKWRSFSGGWWRLLFDYWGQGTQVTVSS | low polyreactivity
QDQIVESGGGLVQAGGSLRLSCAASGSIFVIKAMGWYRQAPGKERELVASIRGRTGSTNYADSVKGRFTISRDNAKNTVYLQMNSLKPVDTAVYYGAADRKGPFDYWGLGTQVTVSS | high polyreactivity
QVHLVESGGGLVQAGGSLRLSCAASGSIFSYYAMGWYRQAPGKERELVASITYSGGSTYYADSVKGRFTISRDNAKNTVYLQMNSLKPEDTAVYYCNTDWRTSVGYDYWGQGTQVTVSS | low polyreactivity
QVQLVESGRGLVQAGGSLRISCAASGFTFRKYTMGWNRQAPGKERELVAAISRRGGSTYYADSVKSRFTISRDNAKNTVYLQMNSLKPEVTAVYYCATDHIPSVGVDYWGQGTQVTVSS | high polyreactivity
QVQLVESGGGLVQAGGSLRLSCAASGRTFSWYVMGLYRQAPGKERELVASISGSGGSTYYADSVKGRFTISRDNAKNTVYLQMNSLKPEDTAVYYCARDYFFRSRSDYWGQGTQVTVSS | high polyreactivity
QVQLVESGGGLVQAGGSLRLICAASVSTFRDHAMGWYRQAPAKERDLVAAIDIDSSTYYADSVKGRFTISLDNAKNSVYLHMNSLKPEDTAVYYCNKDASGGTTTEVDYWGQGTQVTVSS | low polyreactivity
QVQLVESGGGLVQAGGSLRLSCAPSGRIFQYNAMGWYRQAPGKERELGAAISNSTTRTYYADSVKGRFTISRDNAKNTVYLQMNSLKPEDTGVYYCAARGYFWSSYKYDYWVQGTQVTVSS | high polyreactivity
QVQLVESGGGLVQAGGSLRLSSAASGRTFGFNPMGWYRQAPGKERELVAAISSSSSSTYYADSVKGRFTISRDNAKNTVYLQINSLKPEDTAVYYCAKQEPYPFGGYYEYDYWGQGTQVTVSS | low polyreactivity
QVQLVESGGGLVQAGGSLRLSCAASGRIFPYYAMGWYRQAPGKERELVAAISLSGGSTYYADSVKGRFTISRDNAKNTVYLQMNSLKPEDTAVYYCNAVASTYGYYWYPGLGYDYWGQGTQVTVSS | low polyreactivity
QVQLVESGGGLVQAGGSLRLSCAASGRTFAPNAMRWSRQAPGKERELVARITWSGTDTYYADSVKGRFTISRDNAKNTVYLQMNSLKPEDTAVYYCAADARYSRRYYYWGQGTQVTVSS | low polyreactivity
QVQLVESGGGLVQAGGSLRLSCAASGLIFGVNAMGWYRQAPGKERELVAAISWSGSSTNYADSVKGRFTISRDNAKNTVYLQMNSLKPEDTAVYYCATDQGYRYLKIYVYGDAFDYWGQGTQVTVSS | low polyreactivity
QVQLVESGGGLVQAGGGLRLSCAASGRTIPTYAMGWYRQAPGKERELVATITSAGSTNYADSVKGRFTISRDNAKNTVYLQMNSLKPEDTAVYYCAARRRLAWGQGTQVTVSS | high polyreactivity
QVQLVESGGGLVQAGGSLRLSCAASGRTFYGYAMGRYRQAPGKERELVAAISSGGSTYYADSVKGRFTISRDNAKNTVYLQMNSLKPEDTAVYDCAAVKWRRHGGSSEYDYWGQGTQVTVSS | high polyreactivity
QVQLVESGGGLVQAGGSLRLRCAASGFIFARYAMGWYRQAPGKERELVAAITWSGDSTYYAYSVKGRFTISRDNAKYTVYLQMNSLKPEDTAVYYCYPVSGYAKYDYWGQGTQVTVSS | low polyreactivity
QVQLVESGGGLVQAGGSLRLSCAASGSTFRLYAMGWYRQAPGKERELDAAISGSGGSTYYADSVKGRFTISRDYEKNTVYLQMNSLKPVDTAVYYCAAEVVRRYYAGRGYWGHGTQVTVSS | high polyreactivity
QLQLVESGGGLVQAGGSLRLSCAASGLIFIYYAMGWYRQAPGKERELVASITNSGGSTYYADSVKGRFTISRDNAKNTVYLQMNSLKPEDTALYYCAADYKTIVQRYGYYYWGQGTQVTVSS | low polyreactivity
QVQLVESGGGLVQAGGSLRLSCAASGRTLLSPNAMGWYRQAPGKARELVAVISWSDGSTYYADSVKGRFTISRDNANNTVYLQMNSLKPEDTAVYYSAASDPFEASQYKYDYWGQGTQVTVSS | low polyreactivity
QVQLVESRGGLVQAEGSLRLSCAASGYTFTSNDMGWYRQAPGKERELVAAITWSGGTTYYADSVKGRFTISRDNAKNTVYLQMNSLKPEDTSVYYFAADVSLVYPYSYRYYYWGQGTQVTVSS | low polyreactivity
QVQLVESGGGLVQAGGSLRLSCAASGRTFLGYTMGWYRQAPGKESEFVAAITFSGDSTYYADSVKGRFTISRDNAKNTVYLQMNSLKPEDTAVYYCAARIKYYTYLFYYWGQGTQVTVSS | high polyreactivity
QVQLVESGGGLFQAGGSLRLRCAASGFIFGVNAMGWYRQAPGKERELVAAITSTGGRTYYADSVKGRFTISRDNAKNTVYLQMNSLKPVDTAVYFCARYQTGGYGYWGQGTQVTVSS | high polyreactivity
QVQLVESGGGLVHAGGSLRLSCAASGRIFYYYTKGWYRQEPGKERELVAAISSGGSTNYADSVKGRFTISRDNAKNTVYLQMNSLKPEHTAVYYWARYGGYWSLKYDYWGQGTQVTVSS | high polyreactivity

Sequence | polyreactivity (PSR sort gate)
QVQLVESGGGLVQAGGSLRLSCAASGRIFAYYAMGWYRQAPGKERELVAAITSRGGRTYYADSVKGRFTISRDNAKNTVYLQMNSLKPEDTAVYYCAAKGRPDGKYDYWGQGTQVTVSS | high polyreactivity
QVQLVESGGGLVQAGGSLRLSCAASGSIFYGNVMGWYRQAPGKERELVAAISWRGGSTYYADSVKGRFTMSRDNAKNTVYLPMNSLKPEDTAVYYCNAERYYYATYGYPIDYWGQGTQVTVSS | low polyreactivity
QVQLVESGGGLVKAGGSLRLSCAASGFIFTQNAMGWYRQAPGKERELVAAISGTGGSTYYADSVKGRFTISRDNAKNTVYLQMNSLKPEDTAVYYCAARRRQEHVGRSSYARYDYWGQGTQVTVSS | high polyreactivity
QVQLVESGGGLVQAGGSLRLSCAASGRTFPYNAMGWYIQAPGKERELVAAISSGGSTNYADSVKGRFTISRDNAKNTVYLQMNSLKPEDTAVYYCAVTGWPRYTWYSYGYWGQGTQVTVSS | low polyreactivity
QVQLVESGGGLVQAGGSLRLSCAASGRSFYFNAMGWYRQAPGKERELVATISSSSTTYADSVKRRFTISRDNAKNTVYLQMTSLKPEDTAVYYCAARLGTYGEWGRTSYLRWYDYWGQGTQVTVSS | low polyreactivity
QVQLVESGGGLVQAGGSLRLSCAASGRIFRAYAMGWYRQAPGKERELVASISRSGGSTYYADSVKGRFTISRDNSKNTVYLQMYSLKPEDTAVYYCAAVQPVGLYPRTKYYYCGQGTQVTVSS | high polyreactivity
QVQLVESGGGLVQAGGSLRLSCAASGRTFPTYAMGWYRQAPGKERELVARITWNGGSTYYADSVKGRFTISRDNAKNTVYLQMNSLKPEDTAVYYCNAAQRIRYYPRYYYGYDYWGQGTQVTVSS | high polyreactivity
QVQLVESGGGLVQEGGSLRLSCAASGLIFGRYAMGWYRQAPGKERELVAAISSSGVRTYYADSVKGRFTISRDNAKNTVYLQMNSLKPEDTAVYYCAAAYWSSRDDTVIKRYYWGQGTQVTVSS | high polyreactivity
QVQLVESGGGLVQAGGSLRLSCAASGFTFQYYAMGWYRQAPGKERELVAAISRGGSTNYADSVKGRFTISRDNAKNTVYLQMNSLKPEDTAVYYCARLGWTYLWGYDSWGQGTQVTVSS | high polyreactivity
QVQLVESWRGLVQEGGSLRLSCAASGRTFYSYAMGWYIQAPGKERELVAAITRRGTSTYYADSVKGRFTISRDNAKNTVYLQMNSLKPEDTAVYYCAARLPGTFSYGYWGQGTQVTVSS | high polyreactivity
QVQLVESGGGLVQAGGSLRFSCAASGSTFTTNVMGWYRQAPGKERELVAAISHRGGSTYYADSVKGRFTMSRDNAKNTVYLQMNSLKPEDTAVYYCAAPGWERYGYWGQGTQVTVSS | low polyreactivity
QVQLVESGGGLVQAGGSLRLSCAASGRTFYTYAMGWYRQAPGKERELVAAITYSGGRTSYADSVKGRFTISRDNAKNTVYLQMNSLKPEDTAVYYCAARTLGRRLDYGYWGQGTQVSVSS | low polyreactivity
QVQLVESGGGLVQAGGSLRLSCAATGRIFTYMGWYRQAPGKERELVAGISWRGTSTYYADSVKGRFTISRDNAKNTVYLQMNSLKPEDTAVYYCAARWAYHVRGDYWGQGTQVTVSS | low polyreactivity
QVQLVESGGGLVQAGGSLRLSCAASGSIFGWNAMGWYRQAPGKERELVAAISSGGSTYYADSVKGRFTISRDNAKNTVYLQMNSLKPQDTAVYYCNAFFQYYDYWGQGTQVTVSS | low polyreactivity
QVQLVESGGGLGQAGGSLRLSCAASGSIFGYNVMGWYRQAPGKERELVAGITSGGSTNYADSVKGRFTISRDNAKNTVSLQMNSLKPEDTAVYYCNAEGVFGDGRSGFYWYDYWGEGTQVTVSS | low polyreactivity
QVQLVESGGGLVQAGASLRLSCAASGSTFKYYTMGWYRQAPGKERALVAAISFSGARTYYADSVKGRFTISRDNAKNTVYLQMNSLKPEDTAVYYCAKASSYSRRYEYWGQGTQVTVSS | high polyreactivity
QVQLVESGGGLVQAGFSLRLSCAASGSTFQSYTMGRSRQAPGKERELVAAISSSGGRTYYADSVKGRYTISRDYAKNTVYLQMNSLNPEDTAVYYCAAVSKSWRGATWYDYWGQGTQVTVSS | high polyreactivity
QVQLVESGGRLVQAGGSLRLSCAASGRISPYAMGWYRQAPGKERELVAAISSRGGRTYYADSVKGRWTISRDNAKNTVYLEMNSQKPEDTAVYYCAVYPRSTLRTFQRDYWGQGTQVTVSS | high polyreactivity
QVQLVESCVGLVQAGGSLRLSCAASRSTFDSYAMGWYRQAPGNEREMVASITSRGGRTYYADSVKGRFSISRDNAMNTVYLEMNSLKPEDTAVYYCNAYRRKYYYYQRHGFWGQGTQVTVSS | high polyreactivity
QVQLVESGGGLVQAGGSLRLSCAASGFTFVYYAMGWYRQAPGTERELVAAISQSGSSTYYADSVKGRFTISRDNAKNTVYLQMNTLKPEDTAVYYCAAQEFQKRLGGSWWRYDYWGQGTQVTVSS | high polyreactivity
QVQLVESGGGLVQAGGSLRLSCAASGSTFRFYAMGWYRQEPGKERELVAAITSSGGSTYYADSVKGRFTISRDNAKNTVYLQMNSLKPEDTAVYYCNAYPNPVSYELDYWGQGTQVTVSS | low polyreactivity
